Here are results for four molecules from patent US20100143942A1, “METHOD OF DETECTION” (LEIDEN UNIVERSITY, priority 2006, published 2010).

In one experiment the target is T1, Ty (Streptomyces antibioticus, UniProt P07524).
T1 construct: The S.a; Ty is a monomeric protein with a molecular mass of ˜30 kDa
The experiment in a line: Dye emission switching ratio (Fred/Foxy) of N-terminally labelled Ty. To be noted: dye attached to Ty; excitation at 280 nm; Trp line = native protein. An excerpt:
(§1) To illustrate the present invention two type-3 copper proteins have been selected: Hc from the arthropod Carcinus aestuarii (Mediterranean crab) and Ty from the soil bacterium Streptomyces antibioticus. The C.a. Hc consists of a mixture of hexamers and dodecamers, which are self-assembled from three different types of subunits. The S.a. Ty is a monomeric protein with a molecular mass of ˜30 kDa. The structure of Ty from S. castaneoglobisporus has recently been solved. S.a. Ty has 91% sequence similarity (82% indentity) with S.c. Ty and can be easily modelled on the S.c. structure. […] Dissociation can be achieved by incubating the Hc at high pH and in the absence of divalent metal ions. Both conditions were met in our experiments and we will assume, therefore, that the Hc used in this study was present in the form of monomers. The data on O2 binding (vide infra) confirms this assumption.
Both Hc and Ty were labelled at their N-terminus with each of the five dyes. […] The peak around 330 nm is a second-order artefact. In a solution containing dye and protein separately (not linked) this peak (280 nm) was missing. […]
In all cases, an increase in label emission was observed after deoxygenating the sample (FIG. 4A). […] The Cy3 fluorescence is specific for the labelled protein, while the Trp emission derives mainly (>95%) from unlabelled Hc. […]

For experiment [1] the following is noted: literature [12], [13]; cited from earlier work.
For experiment [2] the following is noted: literature [14]; read-out: literature dissociation constant (O2); cited from earlier work.
For experiment [3] the following is noted: literature [15]; read-out: literature Kd (iodide); cited from earlier work.
A short description of experiment [4]: Titration of a mixture of Hc-Alexa350 and Ty-Cy5 with iodide in air-saturated solution, emission upon excitation at 280 nm. The class given is binding. To be noted: fitted to Eq. 1, read-out: apparent Kd (iodide). The protocol:
The specificity of the method is illustrated by the data presented in FIG. 7, which show a titration of a mixture of Hc-Alexa350 and Ty-Cy5 with iodide in an air-saturated solution. […] Hc. […] The small fluorescence decrease of the latter can be ascribed to the aspecific collisional quenching of the label and/or the Trp fluorescence by iodide. […] The difference between the experimental Kd and the literature value of 3.0±0.3 mM [15] may be related to its dependence on the [O2] in the sample, which may have varied between the two experiments.

Experiment [5] can be described thus: O2 binding curve of labelled Ty; [O2] calculated from Hc-Atto390 fluorescence in the same sample during deoxygenation. Details: species or system Streptomyces antibioticus. To be noted: label fluorescence vs [O2] determined from Hc-Atto390; read-out: Kd (O2 binding curve fitted to Hill equation).
Text: as §1, with “Both conditions were met in our experiments and we will assume, therefore, that the Hc used in this study was present in the form of monomers. The data on O2 binding (vide infra) confirms this assumption.” left out
The fact that the described method works for labels showing widely different emission wavelengths opens the possibility to observe two or more constructs in the same sample using a single excitation wavelength. […] The circles refer to the oxygen concentration (right scale) as calculated from the fluorescence of the Hc-Atto390. The left scale refers to the Ty-Atto655 fluorescence. […]
The [O2] at each time-point in the trace was determined using the response of Hc-Atto390 fluorescence with Eq. 1 and the oxygen dissociation constant and the Hill coefficient determined in an independent O2 titration (FIG. 6A). The Ty-Atto655 fluorescence was then plotted as a function of the determined [O2] at each time-point (FIG. 6B). […]

Where two headings read alike, the source gives them in different places.

T1 sequence (P07524 whole entry): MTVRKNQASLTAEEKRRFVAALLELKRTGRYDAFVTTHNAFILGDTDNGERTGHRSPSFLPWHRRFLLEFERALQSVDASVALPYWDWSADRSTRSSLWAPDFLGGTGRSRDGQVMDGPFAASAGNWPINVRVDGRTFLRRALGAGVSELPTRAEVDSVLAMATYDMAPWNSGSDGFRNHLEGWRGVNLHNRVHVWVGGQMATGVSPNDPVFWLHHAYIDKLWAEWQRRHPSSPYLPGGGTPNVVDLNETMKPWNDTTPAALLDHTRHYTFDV

For `Cc1cc(=O)oc2cc3c(cc12)C(C)CC(C)(C)N3CCCC(=O)O` (stereo not shown) [Atto390], the “SR Tyr (switching ratio Fred/Foxy)” value on Ty worked out at 2.2.

On to `CCN1C(=CC=CC2=[N+](CCCCCC(=O)O)c3ccc(S(=O)(=O)O)cc3C2(C)C)C(C)(C)c2cc(S(=O)(=O)[O-])ccc21` [Cy3], for which the “SR Tyr (switching ratio Fred/Foxy)” value on Ty worked out at 2.8.

B1: Ty: Ty from the soil bacterium Streptomyces antibioticus, monomeric type-3 copper protein of ~30 kDa (protein, UniProt P07524 2-273, looked up)
Tyrosinase: TVRKNQASLTAEEKRRFVAALLELKRTGRYDAFVTTHNAFILGDTDNGERTGHRSPSFLPWHRRFLLEFERALQSVDASVALPYWDWSADRSTRSSLWAPDFLGGTGRSRDGQVMDGPFAASAGNWPINVRVDGRTFLRRALGAGVSELPTRAEVDSVLAMATYDMAPWNSGSDGFRNHLEGWRGVNLHNRVHVWVGGQMATGVSPNDPVFWLHHAYIDKLWAEWQRRHPSSPYLPGGGTPNVVDLNETMKPWNDTTPAALLDHTRHYTFDV
With B1, the O2 dissociation rate in experiment [1] is about 300 s⁻¹. Further, the Kd is 16 µM in experiment [2] and 3000 ± 300 µM in experiment [3].

B2: Ty-Cy5: Streptomyces antibioticus tyrosinase labelled at its N-terminus with the dye Cy5 (conjugate, UniProt P07524 2-273, looked up)
Tyrosinase: B1 Tyrosinase
modifications: N-terminal Cy5 label
Consider B2, for which the values for the Kd in experiment [4] and in experiment [5] were 4400 ± 300 µM and 15 µM, respectively.
